Results reported in PMC10786891, “Massively parallel profiling of RNA-targeting CRISPR-Cas13d”.

T1: EsCas13d, nuclease-dead (Eubacterium siraeum, UniProt B0MS50, R295A;H300A;R849A;H854A)
T1 sequence: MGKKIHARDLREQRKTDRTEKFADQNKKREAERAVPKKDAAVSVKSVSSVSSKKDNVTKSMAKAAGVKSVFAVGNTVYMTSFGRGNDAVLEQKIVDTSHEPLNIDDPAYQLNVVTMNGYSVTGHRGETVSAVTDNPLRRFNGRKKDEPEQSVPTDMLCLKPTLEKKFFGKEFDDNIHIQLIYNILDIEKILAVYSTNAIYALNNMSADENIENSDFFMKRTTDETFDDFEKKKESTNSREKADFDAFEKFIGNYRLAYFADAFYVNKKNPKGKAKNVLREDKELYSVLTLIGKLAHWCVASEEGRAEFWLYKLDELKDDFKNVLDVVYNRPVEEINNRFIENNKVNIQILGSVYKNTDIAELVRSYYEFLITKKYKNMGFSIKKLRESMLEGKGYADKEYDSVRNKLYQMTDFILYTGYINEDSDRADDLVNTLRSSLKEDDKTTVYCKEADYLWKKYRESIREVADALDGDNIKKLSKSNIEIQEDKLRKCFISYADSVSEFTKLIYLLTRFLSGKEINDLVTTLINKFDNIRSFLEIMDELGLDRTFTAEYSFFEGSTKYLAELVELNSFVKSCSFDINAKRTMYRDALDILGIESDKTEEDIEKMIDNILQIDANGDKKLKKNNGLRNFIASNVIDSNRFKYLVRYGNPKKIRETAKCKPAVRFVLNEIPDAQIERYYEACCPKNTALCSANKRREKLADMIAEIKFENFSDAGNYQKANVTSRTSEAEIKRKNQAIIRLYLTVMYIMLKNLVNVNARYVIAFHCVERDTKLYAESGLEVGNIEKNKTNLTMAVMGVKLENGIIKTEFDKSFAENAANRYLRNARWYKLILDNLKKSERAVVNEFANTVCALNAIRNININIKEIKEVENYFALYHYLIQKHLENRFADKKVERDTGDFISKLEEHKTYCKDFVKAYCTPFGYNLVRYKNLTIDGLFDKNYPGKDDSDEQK

B1: target 2 MT 5'PFS AAA 3'PFS CAC (mixed)
RNA 1: CACCCGUGCAAAAUUGCAGGGGUCUAAAACCUUCUCCAAAUUGUUUCAUCCU
RNA 2: GGGAAUGGAUCCACAUCUACGAAUUCAAAAGGAUGAAACAAUUUGGAGAAGCACAGAUCGGAAGAGCACACGU
B2: target 2 MT 5'PFS GAC 3'PFS AAU (mixed)
RNA 1: CACCCGUGCAAAAUUGCAGGGGUCUAAAACCUUCUCCAAAUUGUUUCAUCCU
RNA 2: GGGAAUGGAUCCACAUCUACGAAUUCGACAGGAUGAAACAAUUUGGAGAAGAAUAGAUCGGAAGAGCACACGU
B3: target 2 MT 5'PFS AUA 3'PFS AUC (mixed)
RNA 1: CACCCGUGCAAAAUUGCAGGGGUCUAAAACCUUCUCCAAAUUGUUUCAUCCU
RNA 2: GGGAAUGGAUCCACAUCUACGAAUUCAUAAGGAUGAAACAAUUUGGAGAAGAUCAGAUCGGAAGAGCACACGU
B4: target 2 MT 5'PFS UGG 3'PFS CAA (mixed)
RNA 1: CACCCGUGCAAAAUUGCAGGGGUCUAAAACCUUCUCCAAAUUGUUUCAUCCU
RNA 2: GGGAAUGGAUCCACAUCUACGAAUUCUGGAGGAUGAAACAAUUUGGAGAAGCAAAGAUCGGAAGAGCACACGU
B5: target 2 MT 5'PFS UCA 3'PFS AGC (mixed)
RNA 1: CACCCGUGCAAAAUUGCAGGGGUCUAAAACCUUCUCCAAAUUGUUUCAUCCU
RNA 2: GGGAAUGGAUCCACAUCUACGAAUUCUCAAGGAUGAAACAAUUUGGAGAAGAGCAGAUCGGAAGAGCACACGU
B6: target 2 MT 5'PFS AUA 3'PFS AUG (mixed)
RNA 1: CACCCGUGCAAAAUUGCAGGGGUCUAAAACCUUCUCCAAAUUGUUUCAUCCU
RNA 2: GGGAAUGGAUCCACAUCUACGAAUUCAUAAGGAUGAAACAAUUUGGAGAAGAUGAGAUCGGAAGAGCACACGU
B7: target 2 MT 5'PFS GAC 3'PFS AAC (mixed)
RNA 1: CACCCGUGCAAAAUUGCAGGGGUCUAAAACCUUCUCCAAAUUGUUUCAUCCU
RNA 2: GGGAAUGGAUCCACAUCUACGAAUUCGACAGGAUGAAACAAUUUGGAGAAGAACAGAUCGGAAGAGCACACGU
B8: target 2 MT 5'PFS AAU 3'PFS UAU (mixed)
RNA 1: CACCCGUGCAAAAUUGCAGGGGUCUAAAACCUUCUCCAAAUUGUUUCAUCCU
RNA 2: GGGAAUGGAUCCACAUCUACGAAUUCAAUAGGAUGAAACAAUUUGGAGAAGUAUAGAUCGGAAGAGCACACGU
B9: target 2 MT 5'PFS GUU 3'PFS UCU (mixed)
RNA 1: CACCCGUGCAAAAUUGCAGGGGUCUAAAACCUUCUCCAAAUUGUUUCAUCCU
RNA 2: GGGAAUGGAUCCACAUCUACGAAUUCGUUAGGAUGAAACAAUUUGGAGAAGUCUAGAUCGGAAGAGCACACGU
B10: target 2 MT 5'PFS UGG 3'PFS CAG (mixed)
RNA 1: CACCCGUGCAAAAUUGCAGGGGUCUAAAACCUUCUCCAAAUUGUUUCAUCCU
RNA 2: GGGAAUGGAUCCACAUCUACGAAUUCUGGAGGAUGAAACAAUUUGGAGAAGCAGAGAUCGGAAGAGCACACGU
B11: target 2 MT 5'PFS UCA 3'PFS AGA (mixed)
RNA 1: CACCCGUGCAAAAUUGCAGGGGUCUAAAACCUUCUCCAAAUUGUUUCAUCCU
RNA 2: GGGAAUGGAUCCACAUCUACGAAUUCUCAAGGAUGAAACAAUUUGGAGAAGAGAAGAUCGGAAGAGCACACGU
B12: target 2 MT 5'PFS GAC 3'PFS AAA (mixed)
RNA 1: CACCCGUGCAAAAUUGCAGGGGUCUAAAACCUUCUCCAAAUUGUUUCAUCCU
RNA 2: GGGAAUGGAUCCACAUCUACGAAUUCGACAGGAUGAAACAAUUUGGAGAAGAAAAGAUCGGAAGAGCACACGU
B13: target 2 MT 5'PFS UUU 3'PFS UGU (mixed)
RNA 1: CACCCGUGCAAAAUUGCAGGGGUCUAAAACCUUCUCCAAAUUGUUUCAUCCU
RNA 2: GGGAAUGGAUCCACAUCUACGAAUUCUUUAGGAUGAAACAAUUUGGAGAAGUGUAGAUCGGAAGAGCACACGU
B14: target 2 MT 5'PFS AAU 3'PFS UAC (mixed)
RNA 1: CACCCGUGCAAAAUUGCAGGGGUCUAAAACCUUCUCCAAAUUGUUUCAUCCU
RNA 2: GGGAAUGGAUCCACAUCUACGAAUUCAAUAGGAUGAAACAAUUUGGAGAAGUACAGAUCGGAAGAGCACACGU
B15: target 2 MT 5'PFS AUA 3'PFS AUA (mixed)
RNA 1: CACCCGUGCAAAAUUGCAGGGGUCUAAAACCUUCUCCAAAUUGUUUCAUCCU
RNA 2: GGGAAUGGAUCCACAUCUACGAAUUCAUAAGGAUGAAACAAUUUGGAGAAGAUAAGAUCGGAAGAGCACACGU
B16: target 2 MT 5'PFS UAC 3'PFS ACU (mixed)
RNA 1: CACCCGUGCAAAAUUGCAGGGGUCUAAAACCUUCUCCAAAUUGUUUCAUCCU
RNA 2: GGGAAUGGAUCCACAUCUACGAAUUCUACAGGAUGAAACAAUUUGGAGAAGACUAGAUCGGAAGAGCACACGU
B17: target 2 MT 5'PFS GUU 3'PFS UCC (mixed)
RNA 1: CACCCGUGCAAAAUUGCAGGGGUCUAAAACCUUCUCCAAAUUGUUUCAUCCU
RNA 2: GGGAAUGGAUCCACAUCUACGAAUUCGUUAGGAUGAAACAAUUUGGAGAAGUCCAGAUCGGAAGAGCACACGU
B18: target 2 MT 5'PFS AUA 3'PFS AUU (mixed)
RNA 1: CACCCGUGCAAAAUUGCAGGGGUCUAAAACCUUCUCCAAAUUGUUUCAUCCU
RNA 2: GGGAAUGGAUCCACAUCUACGAAUUCAUAAGGAUGAAACAAUUUGGAGAAGAUUAGAUCGGAAGAGCACACGU
B19: target 2 MT 5'PFS GGU 3'PFS ACA (mixed)
RNA 1: CACCCGUGCAAAAUUGCAGGGGUCUAAAACCUUCUCCAAAUUGUUUCAUCCU
RNA 2: GGGAAUGGAUCCACAUCUACGAAUUCGGUAGGAUGAAACAAUUUGGAGAAGACAAGAUCGGAAGAGCACACGU
B20: target 2 MT 5'PFS GUU 3'PFS UCA (mixed)
RNA 1: CACCCGUGCAAAAUUGCAGGGGUCUAAAACCUUCUCCAAAUUGUUUCAUCCU
RNA 2: GGGAAUGGAUCCACAUCUACGAAUUCGUUAGGAUGAAACAAUUUGGAGAAGUCAAGAUCGGAAGAGCACACGU
B21: target 2 MT 5'PFS UCA 3'PFS AGG (mixed)
RNA 1: CACCCGUGCAAAAUUGCAGGGGUCUAAAACCUUCUCCAAAUUGUUUCAUCCU
RNA 2: GGGAAUGGAUCCACAUCUACGAAUUCUCAAGGAUGAAACAAUUUGGAGAAGAGGAGAUCGGAAGAGCACACGU
B22: target 2 MT 5'PFS AGG 3'PFS CAG (mixed)
RNA 1: CACCCGUGCAAAAUUGCAGGGGUCUAAAACCUUCUCCAAAUUGUUUCAUCCU
RNA 2: GGGAAUGGAUCCACAUCUACGAAUUCAGGAGGAUGAAACAAUUUGGAGAAGCAGAGAUCGGAAGAGCACACGU
B23: target 2 MT 5'PFS GGU 3'PFS ACG (mixed)
RNA 1: CACCCGUGCAAAAUUGCAGGGGUCUAAAACCUUCUCCAAAUUGUUUCAUCCU
RNA 2: GGGAAUGGAUCCACAUCUACGAAUUCGGUAGGAUGAAACAAUUUGGAGAAGACGAGAUCGGAAGAGCACACGU
B24: target 2 MT 5'PFS GGU 3'PFS ACU (mixed)
RNA 1: CACCCGUGCAAAAUUGCAGGGGUCUAAAACCUUCUCCAAAUUGUUUCAUCCU
RNA 2: GGGAAUGGAUCCACAUCUACGAAUUCGGUAGGAUGAAACAAUUUGGAGAAGACUAGAUCGGAAGAGCACACGU
B25: target 2 MT 5'PFS GAC 3'PFS AAG (mixed)
RNA 1: CACCCGUGCAAAAUUGCAGGGGUCUAAAACCUUCUCCAAAUUGUUUCAUCCU
RNA 2: GGGAAUGGAUCCACAUCUACGAAUUCGACAGGAUGAAACAAUUUGGAGAAGAAGAGAUCGGAAGAGCACACGU
B26: target 1 insA 3' of 7,insG 3' of 2 (mixed)
RNA 1: CACCCGUGCAAAAAUGCAGGGGUCUAAAACUGAGCGGAUAACCUCUCUAUGG
RNA 2: GGGAAUGGAUCCACAUCUACGAAUUCGUACCAUAGAGAGGUUAUCACGCUCGACCGAGAUCGGAAGAGCACACGU
B27: target 1 insU 3' of 12,insG 3' of 1 (mixed)
RNA 1: CACCCGUGCAAAAAUGCAGGGGUCUAAAACUGAGCGGAUAACCUCUCUAUGG
RNA 2: GGGAAUGGAUCCACAUCUACGAAUUCGUACCAUAGAGAGGUUUAUCCGCUCAGCCGAGAUCGGAAGAGCACACGU
B28: target 1 G5U,C21A (mixed)
RNA 1: CACCCGUGCAAAAAUGCAGGGGUCUAAAACUGAGCGGAUAACCUCUCUAUGG
RNA 2: GGGAAUGGAUCCACAUCUACGAAUUCGUACAAUAGAGAGGUUAUCCUCUCACCGAGAUCGGAAGAGCACACGU

Target: T1, EsCas13d, nuclease-dead
Test: crRNA (strand 1, pre-loaded); Mg2+; 40 mM Tris-HCl pH 7.5, 150 mM NaCl, 6 mM MgCl2, 1 mM DTT, 0.1% Tween-20, 0.2 mg/ml BSA; 25 C; 10 min per concentration, then washed
Conditions: tags: His6-TwinStrep-SUMO cleaved; N-terminal SNAP kept (SNAP-Surface 488); label: 3' end held by stalled T7 RNA polymerase

Question: For B1, which Kd is on record?
Answer: 5.4 ± 1.2 nM

Question: How did the Kd turn out when B2 was run?
Answer: 10.7 ± 2.4 nM

Question: Which Kd does the source give for B3 here?
Answer: 6.1 ± 0.7 nM

Question: B4 was tested. Which Kd did it give?
Answer: 4.7 ± 0.8 nM

Question: How did the Kd turn out when B5 was run?
Answer: 2.68 ± 0.29 nM

Question: B6 was tested. Which Kd did it give?
Answer: 5.6 ± 0.5 nM

Question: How did the Kd turn out when B7 was run?
Answer: 11.4 ± 2.3 nM

Question: B8 was tested. Which Kd did it give?
Answer: 4.9 ± 0.9 nM

Question: Which Kd does the source give for B9 here?
Answer: 23.9 ± 3.1 nM

Question: How did the Kd turn out when B10 was run?
Answer: 6.2 ± 0.8 nM

Question: Which Kd does the source give for B11 here?
Answer: 7.6 ± 1.8 nM

Question: With B12 as the binder, how does the Kd read?
Answer: 9.5 ± 1.9 nM

Question: How did the Kd turn out when B13 was run?
Answer: 16 ± 1.8 nM

Question: How did the Kd turn out when B14 was run?
Answer: 9.2 ± 2.1 nM

Question: How did the Kd turn out when B15 was run?
Answer: 5.2 ± 0.6 nM

Question: For B16, which Kd is on record?
Answer: 9 ± 2.5 nM

Question: For B17, which Kd is on record?
Answer: 36 ± 5 nM

Question: For B18, which Kd is on record?
Answer: 5.8 ± 0.8 nM

Question: B19 was tested. Which Kd did it give?
Answer: 13.4 ± 1.7 nM

Question: With B20 as the binder, how does the Kd read?
Answer: 29 ± 8 nM

Question: How did the Kd turn out when B21 was run?
Answer: 3.3 ± 0.7 nM

Question: With B22 as the binder, how does the Kd read?
Answer: 4.8 ± 0.5 nM

Question: With B23 as the binder, how does the Kd read?
Answer: 18.2 ± 1.8 nM

Question: Which Kd does the source give for B24 here?
Answer: 17.8 ± 1.7 nM

Question: With B25 as the binder, how does the Kd read?
Answer: 8 ± 0.8 nM

Question: B26 was tested. Which Kd did it give?
Answer: 7.4 ± 0.7 nM

Question: With B27 as the binder, how does the Kd read?
Answer: 7.3 ± 0.7 nM

Question: B28 was tested. Which Kd did it give?
Answer: ~40 nM
